Starred links: 1 amine or outer side, 2 acyl side, 3 side chain; linkers in the order of their positions; H or OH if unused. Positions of bridges follow the written chain, without caps; N, C: chain ends. Groups on a side chain read outwards from the residue. No end group written: not given here. *: point of attachment. C20 diacid = O=C(O)CCCCCCCCCCCCCCCCCCC(=O)*; C18 diacid = O=C(O)CCCCCCCCCCCCCCCCC(=O)*; γGlu = O=C(O)[C@H](CCC(=O)[*:2])N[*:1]; AEEA = NCCOCCOCC(=O)O
T1: human amylin 3(a) receptor (human calcitonin receptor + RAMP-3) (human, UniProt P30988 25-474; O60896 24-148)
T1 sequence (looked up) 1: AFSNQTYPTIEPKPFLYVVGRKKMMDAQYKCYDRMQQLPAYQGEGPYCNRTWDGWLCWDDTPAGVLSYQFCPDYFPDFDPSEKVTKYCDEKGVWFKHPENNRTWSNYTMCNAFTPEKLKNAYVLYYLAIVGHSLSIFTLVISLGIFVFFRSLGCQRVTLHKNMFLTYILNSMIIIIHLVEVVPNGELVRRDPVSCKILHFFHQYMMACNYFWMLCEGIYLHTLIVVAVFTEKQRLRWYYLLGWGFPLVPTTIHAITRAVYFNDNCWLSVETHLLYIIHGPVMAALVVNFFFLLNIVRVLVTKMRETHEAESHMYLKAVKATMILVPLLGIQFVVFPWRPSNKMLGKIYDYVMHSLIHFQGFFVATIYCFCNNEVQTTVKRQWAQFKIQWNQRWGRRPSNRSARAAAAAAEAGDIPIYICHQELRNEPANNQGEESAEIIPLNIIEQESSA
T1 sequence (looked up) 2: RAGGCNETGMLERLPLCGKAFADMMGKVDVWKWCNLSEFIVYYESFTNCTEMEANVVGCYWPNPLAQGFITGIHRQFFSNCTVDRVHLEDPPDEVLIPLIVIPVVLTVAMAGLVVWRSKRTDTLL

T2: human calcitonin (a) receptor (human, UniProt P30988 25-474)
T2 sequence (looked up): T1 sequence (looked up) 1

B1: N-alpha-[(S)-4-Carboxy-4-(19-carboxynonadecanoylamino)butyryl]-[Glu14,His17,Asp21,His35]-pramlintide (peptide)
peptide: {C20 diacid-γGlu}-KCNTATCATQRLAEFLHHSSDNFGPILPPTNVGSHTY-NH2
modifications: disulfide 2-7
SMILES: CC[C@H](C)[C@H](NC(=O)[C@@H]1CCCN1C(=O)CNC(=O)[C@H](Cc1ccccc1)NC(=O)[C@H](CC(N)=O)NC(=O)[C@H](CC(=O)O)NC(=O)[C@H](CO)NC(=O)[C@H](CO)NC(=O)[C@H](Cc1c[nH]cn1)NC(=O)[C@H](Cc1c[nH]cn1)NC(=O)[C@H](CC(C)C)NC(=O)[C@H](Cc1ccccc1)NC(=O)[C@H](CCC(=O)O)NC(=O)[C@H](C)NC(=O)[C@H](CC(C)C)NC(=O)[C@H](CCCNC(=N)N)NC(=O)[C@H](CCC(N)=O)NC(=O)[C@@H](NC(=O)[C@H](C)NC(=O)[C@@H]1CSSC[C@H](NC(=O)[C@H](CCCCN)NC(=O)CC[C@H](NC(=O)CCCCCCCCCCCCCCCCCCC(=O)O)C(=O)O)C(=O)N[C@@H](CC(N)=O)C(=O)N[C@@H]([C@@H](C)O)C(=O)N[C@@H](C)C(=O)N[C@@H]([C@@H](C)O)C(=O)N1)[C@@H](C)O)C(=O)N[C@@H](CC(C)C)C(=O)N1CCC[C@H]1C(=O)N1CCC[C@H]1C(=O)N[C@H](C(=O)N[C@@H](CC(N)=O)C(=O)N[C@H](C(=O)NCC(=O)N[C@@H](CO)C(=O)N[C@@H](Cc1c[nH]cn1)C(=O)N[C@H](C(=O)N[C@@H](Cc1ccc(O)cc1)C(N)=O)[C@@H](C)O)C(C)C)[C@@H](C)O
B2: N-epsilon25-[2-(2-{2-[2-(2-{2-[(S)-4-Carboxy-4-(17-carboxyheptadecanoylamino)butyrylamino]ethoxy}ethoxy)acetylamino]ethoxy}ethoxy)acetyl]-[Glu14,Lys25]-pramlint … (peptide)
peptide: KCNTATCATQRLAEFLVHSSNNFGK([AEEA-AEEA-γGlu-C18 diacid])ILPPTNVGSNTY-NH2
modifications: disulfide 2-7; N-terminus assumed
SMILES: CC[C@H](C)[C@H](NC(=O)[C@H](CCCCNC(=O)COCCOCCNC(=O)COCCOCCNC(=O)CC[C@H](NC(=O)CCCCCCCCCCCCCCCCC(=O)O)C(=O)O)NC(=O)CNC(=O)[C@H](Cc1ccccc1)NC(=O)[C@H](CC(N)=O)NC(=O)[C@H](CC(N)=O)NC(=O)[C@H](CO)NC(=O)[C@H](CO)NC(=O)[C@H](Cc1c[nH]cn1)NC(=O)[C@@H](NC(=O)[C@H](CC(C)C)NC(=O)[C@H](Cc1ccccc1)NC(=O)[C@H](CCC(=O)O)NC(=O)[C@H](C)NC(=O)[C@H](CC(C)C)NC(=O)[C@H](CCCNC(=N)N)NC(=O)[C@H](CCC(N)=O)NC(=O)[C@@H](NC(=O)[C@H](C)NC(=O)[C@@H]1CSSC[C@H](NC(=O)[C@@H](N)CCCCN)C(=O)N[C@@H](CC(N)=O)C(=O)N[C@@H]([C@@H](C)O)C(=O)N[C@@H](C)C(=O)N[C@@H]([C@@H](C)O)C(=O)N1)[C@@H](C)O)C(C)C)C(=O)N[C@@H](CC(C)C)C(=O)N1CCC[C@H]1C(=O)N1CCC[C@H]1C(=O)N[C@H](C(=O)N[C@@H](CC(N)=O)C(=O)N[C@H](C(=O)NCC(=O)N[C@@H](CO)C(=O)N[C@@H](CC(N)=O)C(=O)N[C@H](C(=O)N[C@@H](Cc1ccc(O)cc1)C(N)=O)[C@@H](C)O)C(C)C)[C@@H](C)O
B3: N-alpha-[(S)-4-Carboxy-4-(19-carboxynonadecanoylamino)butyryl]-Glu-Arg-[Glu1,Glu14,His17,Pro37]-pramlintide (peptide)
peptide: {C20 diacid-γGlu}-ERECNTATCATQRLAEFLHHSSNNFGPILPPTNVGSNTP-NH2
modifications: disulfide 4-9
SMILES: CC[C@H](C)[C@H](NC(=O)[C@@H]1CCCN1C(=O)CNC(=O)[C@H](Cc1ccccc1)NC(=O)[C@H](CC(N)=O)NC(=O)[C@H](CC(N)=O)NC(=O)[C@H](CO)NC(=O)[C@H](CO)NC(=O)[C@H](Cc1c[nH]cn1)NC(=O)[C@H](Cc1c[nH]cn1)NC(=O)[C@H](CC(C)C)NC(=O)[C@H](Cc1ccccc1)NC(=O)[C@H](CCC(=O)O)NC(=O)[C@H](C)NC(=O)[C@H](CC(C)C)NC(=O)[C@H](CCCNC(=N)N)NC(=O)[C@H](CCC(N)=O)NC(=O)[C@@H](NC(=O)[C@H](C)NC(=O)[C@@H]1CSSC[C@H](NC(=O)[C@H](CCC(=O)O)NC(=O)[C@H](CCCNC(=N)N)NC(=O)[C@H](CCC(=O)O)NC(=O)CC[C@H](NC(=O)CCCCCCCCCCCCCCCCCCC(=O)O)C(=O)O)C(=O)N[C@@H](CC(N)=O)C(=O)N[C@@H]([C@@H](C)O)C(=O)N[C@@H](C)C(=O)N[C@@H]([C@@H](C)O)C(=O)N1)[C@@H](C)O)C(=O)N[C@@H](CC(C)C)C(=O)N1CCC[C@H]1C(=O)N1CCC[C@H]1C(=O)N[C@H](C(=O)N[C@@H](CC(N)=O)C(=O)N[C@H](C(=O)NCC(=O)N[C@@H](CO)C(=O)N[C@@H](CC(N)=O)C(=O)N[C@H](C(=O)N1CCC[C@H]1C(N)=O)[C@@H](C)O)C(C)C)[C@@H](C)O
B4: N-alpha-[(S)-4-Carboxy-4-(19-carboxynonadecanoylamino)butyryl]-Glu-[Glu14,His17,Gln21,His35]-pramlintide (peptide)
peptide: {C20 diacid-γGlu}-EKCNTATCATQRLAEFLHHSSQNFGPILPPTNVGSHTY-NH2
modifications: disulfide 3-8; not fully specified; printed as N-alpha-[(S)-4-Carboxy-4-(19-carboxynonadecanoylamino)butyryl]-Glu-[Glu14,His17,Gln21,His35]-pramlintide
B5: N-alpha-[(S)-4-Carboxy-4-(19-carboxynonadecanoylamino)butyryl]-Glu-Arg-[Glu1,Glu14,Arg17,Pro37]-pramlintide (peptide)
peptide: {C20 diacid-γGlu}-ERECNTATCATQRLAEFLRHSSNNFGPILPPTNVGSNTP-NH2
modifications: disulfide 4-9
SMILES: CC[C@H](C)[C@H](NC(=O)[C@@H]1CCCN1C(=O)CNC(=O)[C@H](Cc1ccccc1)NC(=O)[C@H](CC(N)=O)NC(=O)[C@H](CC(N)=O)NC(=O)[C@H](CO)NC(=O)[C@H](CO)NC(=O)[C@H](Cc1c[nH]cn1)NC(=O)[C@H](CCCNC(=N)N)NC(=O)[C@H](CC(C)C)NC(=O)[C@H](Cc1ccccc1)NC(=O)[C@H](CCC(=O)O)NC(=O)[C@H](C)NC(=O)[C@H](CC(C)C)NC(=O)[C@H](CCCNC(=N)N)NC(=O)[C@H](CCC(N)=O)NC(=O)[C@@H](NC(=O)[C@H](C)NC(=O)[C@@H]1CSSC[C@H](NC(=O)[C@H](CCC(=O)O)NC(=O)[C@H](CCCNC(=N)N)NC(=O)[C@H](CCC(=O)O)NC(=O)CC[C@H](NC(=O)CCCCCCCCCCCCCCCCCCC(=O)O)C(=O)O)C(=O)N[C@@H](CC(N)=O)C(=O)N[C@@H]([C@@H](C)O)C(=O)N[C@@H](C)C(=O)N[C@@H]([C@@H](C)O)C(=O)N1)[C@@H](C)O)C(=O)N[C@@H](CC(C)C)C(=O)N1CCC[C@H]1C(=O)N1CCC[C@H]1C(=O)N[C@H](C(=O)N[C@@H](CC(N)=O)C(=O)N[C@H](C(=O)NCC(=O)N[C@@H](CO)C(=O)N[C@@H](CC(N)=O)C(=O)N[C@H](C(=O)N1CCC[C@H]1C(N)=O)[C@@H](C)O)C(C)C)[C@@H](C)O
B6: N-alpha-[(S)-4-Carboxy-4-(19-carboxynonadecanoylamino)butyryl]-Glu-Arg-[Glu1,Pro37]-pramlintide (peptide)
peptide: {C20 diacid-γGlu}-ERECNTATCATQRLANFLVHSSNNFGPILPPTNVGSNTP-NH2
modifications: disulfide 4-9
SMILES: CC[C@H](C)[C@H](NC(=O)[C@@H]1CCCN1C(=O)CNC(=O)[C@H](Cc1ccccc1)NC(=O)[C@H](CC(N)=O)NC(=O)[C@H](CC(N)=O)NC(=O)[C@H](CO)NC(=O)[C@H](CO)NC(=O)[C@H](Cc1c[nH]cn1)NC(=O)[C@@H](NC(=O)[C@H](CC(C)C)NC(=O)[C@H](Cc1ccccc1)NC(=O)[C@H](CC(N)=O)NC(=O)[C@H](C)NC(=O)[C@H](CC(C)C)NC(=O)[C@H](CCCNC(=N)N)NC(=O)[C@H](CCC(N)=O)NC(=O)[C@@H](NC(=O)[C@H](C)NC(=O)[C@@H]1CSSC[C@H](NC(=O)[C@H](CCC(=O)O)NC(=O)[C@H](CCCNC(=N)N)NC(=O)[C@H](CCC(=O)O)NC(=O)CC[C@H](NC(=O)CCCCCCCCCCCCCCCCCCC(=O)O)C(=O)O)C(=O)N[C@@H](CC(N)=O)C(=O)N[C@@H]([C@@H](C)O)C(=O)N[C@@H](C)C(=O)N[C@@H]([C@@H](C)O)C(=O)N1)[C@@H](C)O)C(C)C)C(=O)N[C@@H](CC(C)C)C(=O)N1CCC[C@H]1C(=O)N1CCC[C@H]1C(=O)N[C@H](C(=O)N[C@@H](CC(N)=O)C(=O)N[C@H](C(=O)NCC(=O)N[C@@H](CO)C(=O)N[C@@H](CC(N)=O)C(=O)N[C@H](C(=O)N1CCC[C@H]1C(N)=O)[C@@H](C)O)C(C)C)[C@@H](C)O

The binders below were run against T1, human amylin 3(a) receptor (human …) (assay: cell-based or functional assay).

Amylin receptor human EC50	Binder
0.291 nM	B1
0.076 nM	B2
0.136 nM	B3
0.391 nM	B4
0.0895 nM	B5
0.063 nM	B6
1.09 nM	KCNTATCATQRLAEFLVHSSK([AEEA-AEEA-γGlu-19‑carboxyheptadecanoyl])NFGPILPSTNVGSHTY-NH2 (disulfide 2-7)

These binders were tested against T2, human calcitonin (a) receptor (assay: cell-based or functional assay).

CTa receptor human EC50	Binder
0.266 nM	B1
0.101 nM	B2
0.378 nM	B3
0.247 nM	B4
0.367 nM	B5
0.061 nM	B6
0.48 nM	KCNTATCATQRLAEFLVHSSK([AEEA-AEEA-γGlu-19‑carboxyheptadecanoyl])NFGPILPSTNVGSHTY-NH2 (disulfide 2-7)

Reference: patent US20130005646A1 (Novo Nordisk, published 2013)
